In paper PMC7790537:

Assays:
[1] = molecular target: recombinant trimeric HA of A/Victoria/210/2009 (H3N2) (influenza A virus A/Victoria/210/2009 (H3N2))
[2] = molecular target: recombinant trimeric HA of A/New Caledonia/20/1999 (H1N1) (influenza A virus A/New Caledonia/20/1999 (H1N1)) (UniProt Q6WG00)

Fab-deficient (ΔFab) IgA1 polymer (from UniProt P01591 23-159) (complex)
> 500 µg/mL: HI activity, minimum HI concentration, Vic210 virus [1] | NT activity, minimum virus-neutralizing concentration, Vic210 virus [1] | HI activity, minimum HI concentration, NC20 virus [2]

Fab-deficient (ΔFab) IgA2m2 polymer (from UniProt P01591 23-159) (complex)
> 500 µg/mL: HI activity, minimum HI concentration, Vic210 virus [1] | NT activity, minimum virus-neutralizing concentration, Vic210 virus [1] | HI activity, minimum HI concentration, NC20 virus [2]
